Data on one molecule can be found in patent US12466878 (dated 2025).

As a reminder, the Kd is a measure of binding affinity in units of concentration.

This assay deals with HLA-A*02:01 (human;). The experiment in a line: ELISA. On the technique in general: In an ELISA, binding on a coated surface is turned into a signal by an enzyme label.

KIQEILTQV [IGF2BP3-001 peptide KIQEILTQV (SEQ ID NO: 1)] had an equilibrium dissociation constant (Kd) of 0.874 nM.
